Measurements as given in patent US20110124572A1, “SYNDECAN-4 IS A REGULATOR OF RAC1-GTP” (priority 2008, published 2011).

Biological target: p21-binding domain of PAK-1 fused to agarose beads (GST-Pak1-Rac/Cdc42-binding domain), as used in the Rac1 activation kit (UniProt Q13153)
Assay: PAK-1 p21-binding domain (PAK-PKB) pull-down from cell lysate, blot with anti-syndecan-4 or anti-GFP

Sequence of p21-binding domain of PAK-1 fused to agarose beads (GST-Pak1-Rac/Cdc42-binding domain), as used in the Rac1 activation kit (Q13153 67-150 limits assumed): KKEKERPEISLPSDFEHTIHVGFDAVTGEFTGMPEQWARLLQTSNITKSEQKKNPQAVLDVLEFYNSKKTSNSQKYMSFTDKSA

amount of pulled-down syndecan-4 against the Ser179Ala line (% less than Ser179Ala line): 20
Substance: wt-syndecan-4-GFP chimera (human syndecan-4, wild type, GFP inserted at position 131) (from UniProt P31431 19-198)
